From patent US5550213

Target: Urokinase plasminogen activator (Homo sapiens (Human)) (UniProt P00749)
Experiment: inhibition of UK activity; Ki by non-linear regression (Enzfitter) of free enzyme versus inhibitor concentration

Ki: 1790 nM
Substance: mutant with arginine at the P1 site of OM3TKY (designed binder)
